Target: ShB-IR (Shaker ShB variant with inactivation removed) (UniProt P08510)
Assay: cell-based or functional assay

ShB-IR (Shaker ShB variant with inactivation removed), sequence (P08510 other isoform, or with tags, fused parts or gaps mutant): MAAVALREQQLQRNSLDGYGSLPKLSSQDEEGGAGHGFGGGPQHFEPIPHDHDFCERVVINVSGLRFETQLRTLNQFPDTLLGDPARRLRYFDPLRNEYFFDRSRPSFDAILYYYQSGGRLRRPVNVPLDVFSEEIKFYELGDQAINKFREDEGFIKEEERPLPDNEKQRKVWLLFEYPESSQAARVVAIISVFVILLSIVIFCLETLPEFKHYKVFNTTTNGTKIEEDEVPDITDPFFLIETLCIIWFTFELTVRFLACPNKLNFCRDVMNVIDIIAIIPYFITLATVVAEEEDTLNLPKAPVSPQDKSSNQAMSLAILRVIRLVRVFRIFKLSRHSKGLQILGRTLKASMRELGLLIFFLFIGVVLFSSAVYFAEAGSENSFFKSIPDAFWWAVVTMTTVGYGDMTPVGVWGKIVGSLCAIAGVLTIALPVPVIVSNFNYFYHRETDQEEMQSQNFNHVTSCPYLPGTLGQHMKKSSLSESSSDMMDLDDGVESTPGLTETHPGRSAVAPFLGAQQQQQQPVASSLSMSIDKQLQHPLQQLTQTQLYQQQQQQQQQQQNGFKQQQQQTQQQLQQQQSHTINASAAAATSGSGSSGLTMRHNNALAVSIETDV

recombinant charybdotoxin (ChTx) (from UniProt P13487 23-59) (peptide)
inhibition of ShB-IR currents by 24 nM recombinant ChTx, two-electrode voltage clamp: 15%

Reference: patent US20090203598A1
